Measurements taken from US20100015126A1, “Methods of Binding of Cross-Beta Structures By Chaperones” (priority 2006, published 2010).

Columns and labels:
[1] = target: CD5 antigen-like precursor (SP-alpha, CT-2, IgM-associated peptide)/CD5 molecule-like (human) (UniProt O43866); assay: BiP-Sepharose pull-down, RA patient III serum (B4), MS of urea eluate; may be indirect
[2] = target: Isoform 1 of Plectin-1 (human) (UniProt Q15149); assay: as above
[3] = target: Vitronectin precursor (Serum-spreading factor/S-protein) (human) (UniProt P04004); assay: BiP-Sepharose pull-down, RA synovial fluid sample 5B, 1 M NaCl eluate, MS; may be indirect
Sequence of Vitronectin precursor (Serum-spreading factor/S-protein) (human) (P04004 20-478 limits assumed): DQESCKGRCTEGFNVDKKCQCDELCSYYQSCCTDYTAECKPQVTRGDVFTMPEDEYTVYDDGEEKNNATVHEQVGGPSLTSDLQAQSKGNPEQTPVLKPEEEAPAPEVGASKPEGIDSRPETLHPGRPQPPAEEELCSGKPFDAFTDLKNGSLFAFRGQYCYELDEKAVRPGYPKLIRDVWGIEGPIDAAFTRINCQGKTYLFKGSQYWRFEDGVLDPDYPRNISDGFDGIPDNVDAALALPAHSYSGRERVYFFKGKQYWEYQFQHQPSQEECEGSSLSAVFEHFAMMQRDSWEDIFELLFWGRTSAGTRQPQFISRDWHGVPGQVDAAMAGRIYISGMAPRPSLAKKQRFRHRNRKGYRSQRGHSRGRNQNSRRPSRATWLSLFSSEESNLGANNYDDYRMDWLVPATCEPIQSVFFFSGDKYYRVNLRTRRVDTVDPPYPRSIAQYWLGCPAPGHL

[4] = target: fibronectin 1 isoform 4 preproprotein (human) (UniProt P02751); assay: as above
Sequence of fibronectin 1 isoform 4 preproprotein (human) (P02751 other isoform, or with tags, fused parts or gaps limits assumed): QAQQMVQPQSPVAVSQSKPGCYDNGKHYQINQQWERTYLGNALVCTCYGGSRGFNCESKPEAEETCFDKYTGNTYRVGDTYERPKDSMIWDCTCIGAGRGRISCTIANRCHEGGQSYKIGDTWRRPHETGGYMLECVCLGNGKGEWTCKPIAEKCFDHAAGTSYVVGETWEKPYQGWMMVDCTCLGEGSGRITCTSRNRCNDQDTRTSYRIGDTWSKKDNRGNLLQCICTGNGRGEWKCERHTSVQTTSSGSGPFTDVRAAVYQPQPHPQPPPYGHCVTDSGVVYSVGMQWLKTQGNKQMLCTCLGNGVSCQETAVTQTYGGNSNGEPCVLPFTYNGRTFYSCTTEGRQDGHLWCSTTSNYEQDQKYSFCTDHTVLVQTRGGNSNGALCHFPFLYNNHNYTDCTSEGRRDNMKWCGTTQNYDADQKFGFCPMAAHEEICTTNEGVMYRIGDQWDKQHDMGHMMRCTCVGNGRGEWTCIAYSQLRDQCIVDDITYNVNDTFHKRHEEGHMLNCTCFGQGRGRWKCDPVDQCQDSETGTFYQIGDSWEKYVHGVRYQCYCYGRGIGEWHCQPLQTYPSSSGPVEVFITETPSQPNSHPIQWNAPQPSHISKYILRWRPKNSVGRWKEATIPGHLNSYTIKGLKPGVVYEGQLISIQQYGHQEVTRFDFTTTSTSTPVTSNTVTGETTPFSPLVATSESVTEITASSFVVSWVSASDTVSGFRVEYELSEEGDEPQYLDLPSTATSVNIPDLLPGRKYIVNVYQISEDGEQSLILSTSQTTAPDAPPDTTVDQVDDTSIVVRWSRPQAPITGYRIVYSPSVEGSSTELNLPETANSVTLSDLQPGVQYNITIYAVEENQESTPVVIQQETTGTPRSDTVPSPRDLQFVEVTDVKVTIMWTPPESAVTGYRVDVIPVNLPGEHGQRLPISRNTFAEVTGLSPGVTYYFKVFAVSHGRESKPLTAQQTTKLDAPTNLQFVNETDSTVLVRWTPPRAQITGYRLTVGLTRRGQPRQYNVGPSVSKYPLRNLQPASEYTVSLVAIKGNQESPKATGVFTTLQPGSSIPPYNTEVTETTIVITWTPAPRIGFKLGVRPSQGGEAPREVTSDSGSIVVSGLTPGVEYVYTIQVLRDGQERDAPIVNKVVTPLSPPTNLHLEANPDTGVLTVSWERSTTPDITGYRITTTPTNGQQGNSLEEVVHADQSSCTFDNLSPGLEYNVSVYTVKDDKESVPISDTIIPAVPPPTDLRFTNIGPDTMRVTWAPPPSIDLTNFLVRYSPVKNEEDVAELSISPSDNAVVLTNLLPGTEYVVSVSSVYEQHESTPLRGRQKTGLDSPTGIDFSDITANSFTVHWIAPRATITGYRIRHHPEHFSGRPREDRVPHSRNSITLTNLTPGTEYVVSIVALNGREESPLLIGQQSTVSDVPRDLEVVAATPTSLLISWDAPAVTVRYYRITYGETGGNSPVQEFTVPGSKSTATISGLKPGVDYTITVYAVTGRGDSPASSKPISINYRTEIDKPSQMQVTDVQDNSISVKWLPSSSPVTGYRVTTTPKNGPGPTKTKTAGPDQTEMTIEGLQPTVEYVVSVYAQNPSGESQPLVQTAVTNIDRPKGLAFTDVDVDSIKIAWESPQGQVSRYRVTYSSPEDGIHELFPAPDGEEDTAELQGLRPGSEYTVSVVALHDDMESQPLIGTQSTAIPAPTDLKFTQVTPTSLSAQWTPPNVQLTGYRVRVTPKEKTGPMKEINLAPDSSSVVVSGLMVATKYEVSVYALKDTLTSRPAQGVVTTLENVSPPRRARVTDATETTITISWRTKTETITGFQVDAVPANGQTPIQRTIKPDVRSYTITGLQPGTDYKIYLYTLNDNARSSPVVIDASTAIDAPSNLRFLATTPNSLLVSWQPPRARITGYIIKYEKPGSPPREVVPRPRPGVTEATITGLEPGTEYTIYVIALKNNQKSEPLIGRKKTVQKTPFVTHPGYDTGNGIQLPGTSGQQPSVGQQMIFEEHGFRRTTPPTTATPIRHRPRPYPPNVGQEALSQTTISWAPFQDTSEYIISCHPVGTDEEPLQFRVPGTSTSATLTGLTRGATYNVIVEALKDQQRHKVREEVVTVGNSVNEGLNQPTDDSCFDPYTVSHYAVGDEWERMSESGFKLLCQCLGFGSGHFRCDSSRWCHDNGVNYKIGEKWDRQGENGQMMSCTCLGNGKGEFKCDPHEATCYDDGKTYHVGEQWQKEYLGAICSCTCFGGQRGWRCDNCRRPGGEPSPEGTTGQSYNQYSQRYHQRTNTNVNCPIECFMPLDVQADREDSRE

[5] = target: Serotransferrin precursor (human) (UniProt P02787); assay: as above
[6] = target: Histidine-rich glycoprotein precursor (human) (UniProt P04196); assay: as above
[7] = target: Heat shock 70 kDa protein 1L (human) (UniProt P34931); assay: as above
Sequence of Heat shock 70 kDa protein 1L (human) (P34931 whole entry): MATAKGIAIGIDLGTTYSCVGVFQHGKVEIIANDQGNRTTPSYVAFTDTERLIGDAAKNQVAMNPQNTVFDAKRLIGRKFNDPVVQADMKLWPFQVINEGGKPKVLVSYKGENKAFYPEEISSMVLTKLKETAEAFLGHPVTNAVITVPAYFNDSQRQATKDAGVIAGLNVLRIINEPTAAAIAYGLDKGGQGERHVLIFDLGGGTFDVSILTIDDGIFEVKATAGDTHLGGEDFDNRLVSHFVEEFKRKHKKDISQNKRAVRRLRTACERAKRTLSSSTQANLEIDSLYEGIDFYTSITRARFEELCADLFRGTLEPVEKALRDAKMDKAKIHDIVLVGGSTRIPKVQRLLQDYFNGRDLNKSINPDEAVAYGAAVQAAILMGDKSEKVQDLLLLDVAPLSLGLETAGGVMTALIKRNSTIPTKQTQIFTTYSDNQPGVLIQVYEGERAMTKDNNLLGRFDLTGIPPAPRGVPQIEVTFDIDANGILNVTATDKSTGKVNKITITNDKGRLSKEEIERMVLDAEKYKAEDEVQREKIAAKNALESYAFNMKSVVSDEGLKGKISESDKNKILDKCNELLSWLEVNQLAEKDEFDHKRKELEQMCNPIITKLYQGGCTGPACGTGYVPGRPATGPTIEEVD

[8] = target: 25 kDa protein/immunoglobulin lambda chain/rheumatoid factor G9 light chain (lambda V3)/IGLC1 protein (human) (UniProt P0CG04); assay: as above
[9] = target: 187 kDa protein/Complement component 3 (human) (UniProt P01024); assay: as above
[10] = target: Hypothetical protein/Heat shock 70 kDa protein 5 (glucose-regulated protein, 78 kDa = GRP78 = BiP = HSPA5), as identified in eluates (human) (UniProt P11021); assay: BiP-Sepharose pull-down, RA synovial fluid sample 1B, 1 M NaCl eluate, MS; BiP may stem from the column
[11] = target: Apolipoprotein E precursor/Apolipoprotein E/Apolipoprotein E3 (Fragment) (human) (UniProt P02649); assay: BiP-Sepharose pull-down, RA synovial fluid sample 1B, 1 M NaCl eluate, MS; may be indirect
[12] = target: Clusterin precursor (human) (UniProt P10909); assay: as above
[13] = target: fibronectin 1 isoform 4 preproprotein (human) (UniProt P02751); assay: as above
[14] = target: IGHM protein, immunoglobulin heavy chain mu (heavy chain disease protein) (human) (UniProt P01871); assay: as above
[15] = target: Isoform 1 of Fibrinogen alpha chain precursor (human) (UniProt P02671); assay: as above
[16] = target: Heat shock 70 kDa protein 1L (human) (UniProt P34931); assay: as above
[17] = target: Histone H2B type 2-E (human) (UniProt Q16778); assay: as above
[18] = target: IGKV1-5 protein, immunoglobulin kappa variable 1-5 (human) (UniProt P01602); assay: as above
[19] = target: Apolipoprotein A-IV precursor (human) (UniProt P06727); assay: as above
Sequence of Apolipoprotein A-IV precursor (human) (P06727 21-396 limits assumed): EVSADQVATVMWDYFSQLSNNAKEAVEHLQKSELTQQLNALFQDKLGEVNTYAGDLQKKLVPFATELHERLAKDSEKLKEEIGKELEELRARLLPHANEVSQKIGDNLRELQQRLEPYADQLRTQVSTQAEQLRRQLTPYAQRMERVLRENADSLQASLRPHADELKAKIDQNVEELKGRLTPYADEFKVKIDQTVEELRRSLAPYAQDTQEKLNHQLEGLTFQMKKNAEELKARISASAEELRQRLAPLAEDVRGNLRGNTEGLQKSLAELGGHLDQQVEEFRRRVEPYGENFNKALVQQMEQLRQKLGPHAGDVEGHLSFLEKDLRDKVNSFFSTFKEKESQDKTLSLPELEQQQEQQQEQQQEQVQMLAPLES

[20] = target: Galectin-3-binding protein precursor (human) (UniProt Q08380); assay: as above
[21] = target: IGHG4 protein, immunoglobulin heavy constant gamma 4 (human) [IgG part: P01861]; assay: as above
[22] = target: Isoform H17 of Myeloperoxidase precursor (human) (UniProt P05164); assay: as above
[23] = target: Single-chain Fv (Fragment), Ig heavy chain V-III region TRO (human) (UniProt P01762); assay: as above
[24] = target: Haptoglobin precursor (human) (UniProt P00738); assay: as above
Sequence of Haptoglobin precursor (human) (P00738 19-406 limits assumed): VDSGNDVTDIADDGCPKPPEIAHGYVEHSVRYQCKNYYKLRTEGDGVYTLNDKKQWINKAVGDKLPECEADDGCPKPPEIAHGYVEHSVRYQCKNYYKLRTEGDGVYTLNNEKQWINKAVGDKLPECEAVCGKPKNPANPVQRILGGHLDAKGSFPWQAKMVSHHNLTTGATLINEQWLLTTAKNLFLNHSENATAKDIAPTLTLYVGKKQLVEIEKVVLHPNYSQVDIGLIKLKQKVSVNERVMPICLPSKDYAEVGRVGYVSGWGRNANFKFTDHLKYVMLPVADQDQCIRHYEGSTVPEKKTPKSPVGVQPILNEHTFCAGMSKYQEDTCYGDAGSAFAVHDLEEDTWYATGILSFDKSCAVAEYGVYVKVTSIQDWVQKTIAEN

[25] = target: Apolipoprotein A-I precursor (human) (UniProt P02647); assay: as above
Sequence of Apolipoprotein A-I precursor (human) (P02647 25-267 limits assumed): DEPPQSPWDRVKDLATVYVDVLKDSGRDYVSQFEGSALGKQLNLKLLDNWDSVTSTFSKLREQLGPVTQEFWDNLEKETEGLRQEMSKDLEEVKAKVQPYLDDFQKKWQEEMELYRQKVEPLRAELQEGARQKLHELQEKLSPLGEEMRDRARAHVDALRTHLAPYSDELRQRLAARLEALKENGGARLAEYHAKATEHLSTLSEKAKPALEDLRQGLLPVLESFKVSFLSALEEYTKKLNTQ

[26] = target: Apolipoprotein A-II precursor (human) (UniProt P02652); assay: as above
[27] = target: IGHM protein, coagulation factor VII (serum prothrombin conversion accelerator) (human) (UniProt P08709); assay: as above
[28] = target: FLJ00385 protein (Fragment), immunoglobulin heavy constant mu (human) (UniProt P01871); assay: as above
[29] = target: 187 kDa protein/Complement component 3 (human) (UniProt P01024); assay: as above
[30] = target: Isoform A of Proteoglycan-4 precursor (human) (UniProt Q92954); assay: as above

Sequence of recombinant human BiP with C-terminal linker, FLAG-tag and His-tag (BiP-FLAG-His) (P11021 other isoform, or with tags, fused parts or gaps): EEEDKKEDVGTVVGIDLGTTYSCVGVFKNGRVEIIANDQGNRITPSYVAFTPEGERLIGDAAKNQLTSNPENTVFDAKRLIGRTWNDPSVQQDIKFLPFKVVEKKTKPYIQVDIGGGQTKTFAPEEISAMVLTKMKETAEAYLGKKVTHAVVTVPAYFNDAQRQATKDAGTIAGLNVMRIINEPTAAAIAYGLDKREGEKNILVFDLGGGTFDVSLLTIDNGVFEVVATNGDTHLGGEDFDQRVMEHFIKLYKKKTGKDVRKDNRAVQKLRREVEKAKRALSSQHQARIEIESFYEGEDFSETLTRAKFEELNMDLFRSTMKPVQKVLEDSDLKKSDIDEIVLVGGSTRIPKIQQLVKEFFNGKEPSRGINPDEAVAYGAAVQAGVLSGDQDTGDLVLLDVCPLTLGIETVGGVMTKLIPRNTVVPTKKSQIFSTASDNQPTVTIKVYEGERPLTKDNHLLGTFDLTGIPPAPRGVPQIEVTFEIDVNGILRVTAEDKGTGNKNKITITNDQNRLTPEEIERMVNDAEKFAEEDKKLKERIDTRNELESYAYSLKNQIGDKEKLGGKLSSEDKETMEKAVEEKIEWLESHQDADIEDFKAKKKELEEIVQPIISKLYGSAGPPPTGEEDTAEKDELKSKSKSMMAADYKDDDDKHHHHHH

# of peptides [1]: 1 peptides | # of peptides [2]: 2 peptides | # of unique peptides [3]: 2 peptides | # of unique peptides [4]: 2 peptides | # of unique peptides [5]: 1 peptides | # of unique peptides [6]: 1 peptides | # of unique peptides [7]: 1 peptides | # of unique peptides [8]: 1 peptides | # of unique peptides [9]: 1 peptides | # of unique peptides [10]: 21 peptides | # of unique peptides [11]: 1 peptides | # of unique peptides [12]: 1 peptides | # of unique peptides [13]: 10 peptides | # of unique peptides [14]: 3 peptides | # of unique peptides [15]: 3 peptides | # of unique peptides [16]: 1 peptides | # of unique peptides [17]: 2 peptides | # of unique peptides [18]: 3 peptides | # of unique peptides [19]: 3 peptides | # of unique peptides [20]: 1 peptides | # of unique peptides [21]: 4 peptides | # of unique peptides [22]: 1 peptides | # of unique peptides [23]: 2 peptides | # of unique peptides [24]: 1 peptides | # of unique peptides [25]: 3 peptides | # of unique peptides [26]: 1 peptides | # of unique peptides [27]: 2 peptides | # of unique peptides [28]: 1 peptides | # of unique peptides [29]: 2 peptides | # of unique peptides [30]: 2 peptides
Substance: recombinant human BiP with C-terminal linker, FLAG-tag and His-tag (BiP-FLAG-His) (from UniProt P11021 19-654)
